Source: patent US20180049457A1, “ENZYMATIC SYNTHESIS OF SOLUBLE GLUCAN FIBER” (E I DU PONT DE NEMOURS AND COMPANY, priority 2014, published 2018)

Experiment: GTF activity of strains (PAHBAH assay)
Format: biochemical
Conditions: enzyme expressed in B. subtilis host
Procedure: GTF activity of the strains was analyzed by PAHBAH assay in three separate experiments. Due to minor variations between the expeirments, Table 2 lists the activity of the truncated enzymes in the B. subtilis host along with the experiment in which the activity was measured. Most of the T1, T2, and T6 truncations decreased the activity of the enzymes, whereas the T4 and T5 C-terminal truncations retained similar activity relative to the respective N terminal-only truncations (NT). […] To identify specific amino acid residues within the catalytic domain that may be involved in producing the soluble α-glucan fiber, we analyzed the crystal structures (PDB Identifiers: 3AIB, 3AIC, and 3HZ3) of the catalytic domains of three glucosyltransferases to identify residues within 8 Angstroms of the bound ligand. 57 residues met that criterion. A motif was generated based on the corresponding 57 amino acids in GTF0459 and each of the identified homologs. The motif was then used to generate a consensus sequence to capture the variability in the catalytic domains of GTF0459 and the identified homologs. The consensus sequence is provided as SEQ ID NO: 153.

| Molecule | GTF activity of strains: Acitivity (Experiment Number 2) | GTF activity of strains: Acitivity (Experiment Number 1) | GTF activity of strains: Acitivity (Experiment Number 3) |
| --- | --- | --- | --- |
| GTF4336T4: T4 C-terminal truncation of GTF4336, SEQ ID NO: 130, strain SG1318 (protein, T4 C-terminal truncation of GTF4336) INGKQYYVNSDGSVRKNFVFEQDGKSYYFDAETGALATKSQDEFSTEPIKATVDFSSGNQLYKNDDKSLDQLDTFITADAWYRPKSILKDGKTWTASTEADKRPLLMVWWPDKSTQVNYLNYMQNQGLGAGSFSTNSSQESLDQAAKAVQTKIEERIAREGNTNWLRTSIDQFIKTQPGWNSSTENSSYDHLQGGQLLFNNSKGDTGNRTSHANSDYRLLNRTPTNQTGTRKYFKDNSIGGLEFLLANDIDNSNPAVQAEQLNWLHFMMNIGSIMANDPTANFDGLRVDALDNVDADLLQIASDYFKAAYGVDKSEANAIKHLSYLEAWSANDPYYNKDTKGAQLPIDNALRNALTNLLMRDKNTRMQLGDMTAFINSSLNPRGANDKNGERMANYIFTRAHDTEAQTIIQRIIRDRINPNLFGYNFTRDEIKKAFEIYNEDIDKAHKTYASYNLPSVYALMLTNKDSVTRVYYGDLYREDGHYMAKKTPYFDAIDTLLRARIKYVAGGQDMEVKKVGNDGLLTSVRYGKGANNRTDLGTSETRTQGMGVIMTNNYDFRLGSNETVTMNMGRAHRNQLYRPLLLTTKDGIATYFNDSDVPKNLLKRTDWNGNLTFNANDVFGVENVQVSGYLGVWVPVGAKANQDARTQPSNRANSDGQVYKSSAALDSQVMYEAFSNFQAFADDQPELYMNRVLAKNTDLLKAWGVTSVGLPPQYVSSKDGTFLDSTIDNGYAFDDRYDMALSQNNKYGSLEDLLNVLRALHKDGIQAIADWVPDQIYNLPGKEVVNATRVNGYGYHQQGYQIVDQAYVANTRTDGTDYQGKYGGAFLDELKAKYPSIFNRVQISNGKQLPTNEKITKWSAKYFNGTNILGRGINYVLRDDKTNQYFNTSANSQLLPTPLRDTGAITSTQVFQRRGQDVYFLRDNQAVKNEFVQDGNGNWYYFGADGKMTKGAQTINKKDYYFFDNGIQLRNALRRANNGYTYYYGLDGAMVKNAFVDFDDKRK | 46.4 U/mL |  |  |
| GTF4336T5: T5 C-terminal truncation of GTF4336, SEQ ID NO: 120, strain SG1319 (protein, T5 C-terminal truncation of GTF4336) INGKQYYVNSDGSVRKNFVFEQDGKSYYFDAETGALATKSQDEFSTEPIKATVDFSSGNQLYKNDDKSLDQLDTFITADAWYRPKSILKDGKTWTASTEADKRPLLMVWWPDKSTQVNYLNYMQNQGLGAGSFSTNSSQESLDQAAKAVQTKIEERIAREGNTNWLRTSIDQFIKTQPGWNSSTENSSYDHLQGGQLLFNNSKGDTGNRTSHANSDYRLLNRTPTNQTGTRKYFKDNSIGGLEFLLANDIDNSNPAVQAEQLNWLHFMMNIGSIMANDPTANFDGLRVDALDNVDADLLQIASDYFKAAYGVDKSEANAIKHLSYLEAWSANDPYYNKDTKGAQLPIDNALRNALTNLLMRDKNTRMQLGDMTAFINSSLNPRGANDKNGERMANYIFTRAHDTEAQTIIQRIIRDRINPNLFGYNFTRDEIKKAFEIYNEDIDKAHKTYASYNLPSVYALMLTNKDSVTRVYYGDLYREDGHYMAKKTPYFDAIDTLLRARIKYVAGGQDMEVKKVGNDGLLTSVRYGKGANNRTDLGTSETRTQGMGVIMTNNYDFRLGSNETVTMNMGRAHRNQLYRPLLLTTKDGIATYFNDSDVPKNLLKRTDWNGNLTFNANDVFGVENVQVSGYLGVWVPVGAKANQDARTQPSNRANSDGQVYKSSAALDSQVMYEAFSNFQAFADDQPELYMNRVLAKNTDLLKAWGVTSVGLPPQYVSSKDGTFLDSTIDNGYAFDDRYDMALSQNNKYGSLEDLLNVLRALHKDGIQAIADWVPDQIYNLPGKEVVNATRVNGYGYHQQGYQIVDQAYVANTRTDGTDYQGKYGGAFLDELKAKYPSIFNRVQISNGKQLPTNEKITKWSAKYFNGTNILGRGINYVLRDDKTNQYFNTSANSQLLPTPLRDTGAITSTQVFQRRGQDVYFLRDNQAVKNEFVQDGNGNWYYFGADGKMTKGAQTINKKDYYFFDNGIQLRNALRRANNGYTYYYGLDGAMVKNAFVDFDDKRKQ | 43.6 U/mL |  |  |
| GTF0974NT: N terminal-only truncated GTF0974 from Streptococcus salivarius 57.I, SEQ ID NO: 110, strain SG1290 (protein, Streptococcus salivarius 57.I) INGKQYYVNSDGSVRKNFVFEQDGKSYYFDAETGALATKSQDEFSTEPIKATVDFSSGNQLYKNDDKSLDQLDTFITADAWYRPKSILKDGKTWTASTEADKRPLLMVWWPDKSTQVNYLNYMQNQGLGAGSFSTNSSQESLDQAAKAVQTKIEERIAREGNTNWLRTSIDQFIKTQPGWNSSTENSSYDHLQGGQLLFNNSKGDTGNRTSHANSDYRLLNRTPTNQTGTRKYFKDNSIGGLEFLLANDIDNSNPAVQAEQLNWLHFMMNIGSIMANDPTANFDGLRVDALDNVDADLLQIASDYFKAAYGVDKSEANAIKHLSYLEAWSANDPYYNKDTKGAQLPIDNALRNALTNLLMRDKNTRMQLGDMTAFINSSLNPRGANDKNGERMANYIFTRAHDTEAQTIIQRIIRDRINPNLFGYNFTRDEIKKAFEIYNEDIDKAHKTYASYNLPSVYALMLTNKDSVTRVYYGDLYREDGHYMAKKTPYFDAIDTLLRARIKYVAGGQDMEVKKVGNDGLLTSVRYGKGANNRTDLGTSETRTQGMGVIMTNNYDFRLGSNETVTMNMGRAHRNQLYRPLLLTTKDGIATYLNDSDVPKKLLKRTDWNGNLTFNANDVFGVENVQVSGYLGVWVPYGAKANQDARTQPSNRANSDGQVYKSSAALDSQVMYEAFSNFQAFADDQPELYMNRVLAKNTDLLKAWGITSVGLPPQYVSSKDGTFLDSTIDNGYAFDDRYDMALSQNNKYGSLEDLLNVLRALHKDGIQAIADWVPDQIYNLPGKEVVNATRVNGYGNHQVGYQIIDQAYVANTRTDGTDYQGKYGGAFLDELKAKYPSIFNRVQISNGKQLPTNEKITKWSAKYFNGTNILGRGINYVLRDDKTNQYFNTSANSQLLPTPLRDTGAITSTQVFQRRGQDVYFLRDNQAVKNEFVQDGNGNWYYFGGDGKMTKGAQNINNKDYYFFDNGIQLRNALRRASNGYTYYYGLDGAMVKNAFVDFDDKHKQVRAFTTQGTMVVGNLHWSGHHFYFDRETGIQAKDRVVRTDDGKLHYYVAETGDMGRNVFATDSSTGKRYYFDADGNTVTGSRVIDGKTYYFNQDGSVGTAYSNRADSIIFENGKARYITPAGEIGRSIFVYNPETKAWNYFDKEGNRVTGRQYIDGHLYYFKEDGSQAKGEIIEENGVKYYYEPESGILASGRYLQVGDDQWMYFKQDGSLAIGQVRADHGYLKYFDKNGIQVKGKTVVEDGKTYYYDAHSGALVTSSFAEIAPNQWSYFNTDGQALKGKWTINGKEYYFDENGIQYKGKAIKVGSRYKYYDENDGQPVTNRFAQIEPNVWAYFGADGYAVTGEQVINGQHLYFDQSGRQVKGAYVTVNGQRRYYDANTGEYVPGR | 53 U/mL | 43.7 U/mL | 36.4 U/mL |
| GTF0974T5: T5 C-terminal truncation of GTF0974 glucosyltransferase, SEQ ID NO: 118, strain SG1317 (protein, T5 C-terminal truncation of GTF0974) INGKQYYVNSDGSVRKNFVFEQDGKSYYFDAETGALATKSQDEFSTEPIKATVDFSSGNQLYKNDDKSLDQLDTFITADAWYRPKSILKDGKTWTASTEADKRPLLMVWWPDKSTQVNYLNYMQNQGLGAGSFSTNSSQESLDQAAKAVQTKIEERIAREGNTNWLRTSIDQFIKTQPGWNSSTENSSYDHLQGGQLLFNNSKGDTGNRTSHANSDYRLLNRTPTNQTGTRKYFKDNSIGGLEFLLANDIDNSNPAVQAEQLNWLHFMMNIGSIMANDPTANFDGLRVDALDNVDADLLQIASDYFKAAYGVDKSEANAIKHLSYLEAWSANDPYYNKDTKGAQLPIDNALRNALTNLLMRDKNTRMQLGDMTAFINSSLNPRGANDKNGERMANYIFTRAHDTEAQTIIQRIIRDRINPNLFGYNFTRDEIKKAFEIYNEDIDKAHKTYASYNLPSVYALMLTNKDSVTRVYYGDLYREDGHYMAKKTPYFDAIDTLLRARIKYVAGGQDMEVKKVGNDGLLTSVRYGKGANNRTDLGTSETRTQGMGVIMTNNYDFRLGSNETVTMNMGRAHRNQLYRPLLLTTKDGIATYLNDSDVPKKLLKRTDWNGNLTFNANDVFGVENVQVSGYLGVWVPYGAKANQDARTQPSNRANSDGQVYKSSAALDSQVMYEAFSNFQAFADDQPELYMNRVLAKNTDLLKAWGITSVGLPPQYVSSKDGTFLDSTIDNGYAFDDRYDMALSQNNKYGSLEDLLNVLRALHKDGIQAIADWVPDQIYNLPGKEVVNATRVNGYGNHQVGYQIIDQAYVANTRTDGTDYQGKYGGAFLDELKAKYPSIFNRVQISNGKQLPTNEKITKWSAKYFNGTNILGRGINYVLRDDKTNQYFNTSANSQLLPTPLRDTGAITSTQVFQRRGQDVYFLRDNQAVKNEFVQDGNGNWYYFGGDGKMTKGAQNINNKDYYFFDNGIQLRNALRRASNGYTYYYGLDGAMVKNAFVDFDDKHKQ | 43.5 U/mL |  | 37.7 U/mL |
